The values that follow come from doi:10.1101/763847.

This assay has as its target single-bond CDH23 fusion protein (EC1-5/EC3-5 Fc heterodimer with one EC1-2 binding domain) (mouse). As to the kind of experiment: single-molecule dynamic force spectroscopy.

For orientation: koff means a measure of how fast the partners let go of each other. A lower koff goes with a long-lived complex. Substance “single-bond PCDH15 fusion protein (EC1-5/EC3-5 Fc heterodimer with one EC1-2 binding domain) (Fc fusion)” registered a force sensitivity fβ (force that accelerates the off-rate e-fold) of 14.3 pN, a koff of 0.62 s⁻¹, a mean lifetime (1/koff) at zero force of 1.6 s and a mean zero-force lifetime in 50 uM Ca2+ of 0.87 s. The single-bond lifetime at a resting tension of 10 pN (calculated from the fit) is 1 s.
